Source: paper PMC6008203

Biological target: PtmA2 (as used for analytical size-exclusion chromatography) (Streptomyces platensis CB00739)
Assay: SEC

stoichiometry N: 2
Substance: PtmA2 (as used for analytical size-exclusion chromatography) (enzyme)
